Experimental data published in the DeepSol protein solubility set.

Test: soluble on expression in E. coli; label from the status in PepcDB or PDB records

Sequence | soluble on expression in E. coli
MGSDKIHHHHHHMTETTSQMRREVLEIPAAIDRLLSQGTPEIARIAAAVAKADPRFAVTVARGSSDHACTFLKYALELELGLPVASIGPSVASIYGAQLKLANSITLSVSQSGKSPDIVAMSRAATEGDSFTVAITNDAQSPLSDASSHTIDIHAGPEISVAATKTFVTSAAAGLILLAEWKDDDILRAALRGLPECLSKAATHDWPDLRAAIGSASSLFTLGRGPAWAISNEAALKFKETCQIHAESYSSAEVLHGPVSIVGGGFPVLCFASGDAAEASVTDVADQLAAKGARVFVTSDKADTAHCLPHVRTGHPLTDPLALIVSFYAMIEKVAAERGVNPDAPRHLNKVTETV | not soluble
MKSHERGRVILVIDDTDCGRVAAERLVFMARAGFRGDVFVVFGKDIEISPIASYEKEMKIYTSLRVKASKFVEFYRERLEEAGLEVKQVKIILGNVSEEVLRLEKLLNPDLIVFGMEKRGFLKRLLRGDPYKEIIYETKAPVMVCKAGYERKDVDYEKIRCAKCVMG | not soluble
MSLSKMEINKRALKENMALLACPICGEAFEFKEPQSFVCLEGHGFDIAKPGYVHLLKQAHKTKYDQALFESRKKVIASGFFEKLIERVTEIIAEKKKEQLVLYDAGCGEGSHLARVVSNLQATGVNVQAVGLDIAKEGVKQAARDYPGTSWTVADLANCPNQAETADVILNILSPSNYVEFKRLLKKDGFLLKVVPEANYLRELREFIYVDEKSSYSNESVTSRLAEKLSVEHVERVTYKAPIAKELFADFLEMTPLGWHIEADKKSELLGNPPEELTVDLQIIIANRAHLLEGHHHHHH | soluble
MVSIMNKNELITEILKNEVVKALGCTEVGLIGYTVAKAKPEDLYSIKEIKLILDKGTFKNAFSVGVPNTNKFGILPAVVGGLLGREENKLEVFKDIKYDEKLEEFIENKLKIEVIDSDVYCKVIIKANKVYEAETKGSHSGKSLSDDLKNAYKSLTLKDFIDYIEDIPEEVIKIIKETIETNKNLSTPEVPEDFISLDLKDEILNHMLKKTVSAVYNRMIGINKPAMAIAGSGNMGLTATLPIIAYDEIKGHDEEKLTKSITLSALTTIYSAYHSSYISAMCGCVNRGGIGAVSGLSYYIFGFDRIEESIKSFTANLPGIVCDGGKIGCALKIASGVFAIYLSLFSKVPYTNGIVGKDFKECIENIGKIGKAMKPVDDEIIEILKNKK | soluble
MEKNFKVAALYCFADLKHYRQLQKPLLDLCQAKDIKGTLLLAQEGINGTVAGSCAAIETLVDFITAEPAFQMPEIKYSWASKMPFHRMKVRLKKEIVTMGVDGVNPLKAVGTYVDPKDWNALIQDEETLLIDTRNDYEYAIGSFQGAVDPRIKTFREFPAWVLKHEADLKKKKKIAMFCTGGIRCEKSTAYVRELGYEQVYHLKGGILKYLETIPKEDSLWWGECFVFDERVSVKHGLEECGRELCRACRSPLNTESKLSPHYEEGVSCDACYNTRSEDDRERFRERHRQFQLSKLRAMHSHQELEHHHHHH | not soluble
LALIAGTGALPEELVARLSEPPLVCAMEGFAPERLAVDIPFPIEHLGSLVADLKARGVSEICLAGAVGRPAVDPARIDAATLPLVPVIQQALTSGDDGALRAVMGIFENAGLTVRAAHEIAPDLLMPAGCPTKAQPEPAELADARRGAEIVAAMSAADIGQACVVHRGQALAVESVFGTNWMLGSLGQRPDAGGGVLFKAPKPDQDRRADLPTIGPDT | not soluble
SLGRQVYNFNPGWRFFKGDIRGAEAVNFDDRSWEVVSTPHTVELMPAEGSGCRNYQGPAWYRKHFVVPTATKGQRVLLHFEAAMGKQVLYLNGKRVQEHLGGYLPFTLDLTANGVQAGDSCLLAVYTDNSNDKSYPPGKPQYTLDFAYHGGIYRDVWMIAKSPVAITDAIDSRTVGGGGVFVHFDKISEKSAQVYVETEIQNDNTRSESVTIETTLTDAEGNVIKRTSGKLSLNSGEKKSIRQQMEVRNPKLWSPDAPYLYRVQSRIKKGNRSIDGGTTRIGIRLAEFRGKEGFWLNGKPFGQLVGANRHQDFAYVGNALPNSQQWRDAKRLRDAGCTIIRVAHYPQDPSFMDACDELGLFVIVATPGWQYWNKDPKFGELVHQNTREMIRRDRNHPSVLMWEPILNETRYPLDFALKALEITKEEYPYPGRPIAAADVHSAGVKEHYDVVYGWPGDDEKEDKPEQCIFTREFGENVDDWYAHNNNNRASRSWGERPLLIQALSLAKSYDEMYRTTGQFIGGTQWHPFDHQRGYHPDPYWGGIYDAFRQKKYAYEMFRSQSPASLQHPLAECGPMIFLAHEMSQFSDKDVVVFSNCDSIRLSIYDGTKTWTKPVVHAKGHMPNAPVIFENVWDFWEARGYSYTQKNWQKVNMVAEGIIDGKVVCTQKKMPSRRSTKLRLYADTQKVNLVADGSDFIVVVAEVTDDSGNVRRLAKENIVFTVEGEGEIIGDARIGANPRAVEFGSAPLLIRSTRKAGKIKVKAHVQFEGTQAPTAAEMEFESVPAELPFCYDEKEG | not soluble
MSLSEGPKKAGVLGSPIAHSRSPQLHLAAYRALGLHDWTYERIECGAAELPVVVGGFGPEWVGVSVTMPGKFAALRFADERTARADLVGSANTLVRTPHGWRADNTDIDGVAGALGAAAGHALVLGSGGTAPAAVVGLAELGVTDITVVARNSDKAARLVDLGTRVGVATRFCAFDSGGLADAVAAAEVLVSTIPAEVAAGYAGTLAAIPVLLDAIYDPWPTPLAAAVGSAGGRVISGLQMLLHQAFAQVEQFTGLPAPREAMTCALAALDEGHHHHHH | soluble
MGSDKIHHHHHHMVIHKETMRSANEKSVLQRIFTEGPISKSQVARDVSLNKVTVSQIINKFISSRLVVEAGSGDSTQQGGRKPELVQINSKYGYVVCIDLGYQELSVLSMSINGQKLDSRHTIFGNDDINIAIEKIYEILVEFQEMHKERLLGLLVSIHGIVHKNQVIYSPFWNMKQIDLADTLSKKFDIPVILENEANLTATFERDYSVNEIQNAVSISMHKGIGAGIIIDGELYRGRKGEAGEIGQTVAFESENQSLEKSNKIEDVCSPQVILARIKNAKKLEYINWQLVRQMFDDKDQETLEILKEFENNVAKIINNVIVSFDPDVLVVNAYIFKEFPEILERISNGFAHVSVRNTPIVLSENVKNASLYGGCAQMIRTILGVSKLKLQYKK | not soluble
MAHHHHHHMLRRVSLSALVQRVAAGAVIATAGRTIVVFSQQHHILESNQRARNSPSNVWIEDWEADRLGMKPEPGALPTQLVLDKQLELFNFDQLLSPPEVMEAPKHSSYSSRKVYGERLQFELNDRAQRHSYQSKWWITRGQAYKENLQFKANARSSILLTKSQIKLFHSSQLSGGEALQQYPVSGGSRRVYSKKGEAFQLLQDHIKSNDFNSGLYFTRRQMEFFKLAPLPDQVPVVQEAATGDRHLIYNVDQLEDPHLALKTLQRAPVNVPTFLLSGEPIMSENTRKFPKTFRSNYWLTGRDAELYQWPIKESERRRGVPFSTGTSAPVQYELFNVEQLSNPDEAFARAGLLIQ | soluble
AHHHHHHGSIKLRDELGTATTDSAQKILLLGSGELGKEIAIEAQRLGVEVVAVDRYANAPAMQVAHRSYVGNMMDKDFLWSVVEREKPDAIIPEIEAINLDALFEFEKEGYFVVPNAKATWIAMHRERLRETLVKEAKVPTSRYMYATTLDELYEACEKIGYPCHTKAIMSSSGKGSYFVRGPEDIPKAWEEAKTKARGSAEKIIVEEHIDFDVEITELAVRHFDENGEIVTTFPKPVGHYQIDGDYHASWQPAEISEKAEREVYRIAKRITDVLGGLGLFGVEMFVKGDKVWANEVSPRPHDTGMVTLASHPPGFSEFGLHLRAVLGLPIPGEWVDGYRLFPMLIPAATHVIKAKVSGYSPRFRGLAKALSVPNATIRLFGKPEAYPGRRLGVVLAWDKDVQEAKKRAEMVAHMIELRTRSSDWHSQDYEKRKHLL | soluble
MAHHHHHHMALTQSSGEPLRSMQGGVGGVSYADGAGQAPEHINRASATPVLTEEAVQSSIETFEDAACVREEAVRSYAEFHNNVESLHATMHTQLRPVWRTAMQLRPEILSDVRDEWCLRRRDNIPDGIPIPAAAAQHIALQETILSEVEDMLQVLRNTSVRFAAHFLSDEEKISMGANPAYLRAPDIDKEVVVSRSQSTSTSPQRALPASVMSVSSSAGAVASAPIKPSASSAATAAVHTPREGHSRHHQGSYVQHHHHHSDDEAGLVSSSSNRHVCSGKSSCGSRSAGEDPLLEELRKQYQLRIRELKAQSEAGASRRSEHGASQSAAAPPPRRGNRARVAASRSLSLPSWASSASASVLTSSSSTVSRR | soluble
MEDFNRRAEELDQVEKNVSLGLKKIQDEMDSIQLEVEPDDVEITSTKRGFWEHDITNLSPFPVVCRVRATSPSMFVVNKNVFLLKPMDFFKLMISRKPGQIRSHHLKIDVTQFVDTFNPINLLDYFIASNPFKTFVVRYHGAPRYWSDALEMNSWLTGEQLNEQWEKEMKKTSQEKKSSLETSEVSSVNEFVDAEEDNFPVQRAAMNITNVLTVASQVPDESNKNEPDSDIDSVVSGTIDSELANLKI | not soluble
MSIKPIDFQMMIPKTAEISKIQNDQQQKSVVVNEQQTNITRQKFEENVNTVHARENAEKVRIDSEQKKKKEERGRKKNPNRAKYGTKGEKEPEEQTSVIDIRL | not soluble
PTEEWLRYVTTARAKSKVDTFLRRKRRELINRGEERVVSVIRTSESMVSAELLDRIAAYFGFLNRETFFYAVGTGTVSLPESFKKL | not soluble
MGGIGRIGILGSGSWATALAKIILTSQPSINWFMRREEQAQGIKRTGRNPNYLRDAVFDPRKISFFTDSDLNSFFRASDVVVLVTPSPFIKSYLKRVRSSSMRDKLIINAIKGIVPDENVLVSEYLHDFCDVPNELIGVVSGPCHAEEVARERRSYLTVGCFDINKAKAMANVLRNDYVSCTTSQDVVGIEYASVLKNVYAIAAGICNGLQYGDNFQSVLMSNAIAEMNSFVNTVHLLEREITDSVYLGDLLVTAYSNYSRNRTFGNMIGKGYSVKSAQMEMEMIAEGYYGAKCVREVNKRYQVNMPIMNTVYEVLYEKRDAAEAITALTAHFK | not soluble
MGSDKIHHHHHHMKILIIPNRGRSYNAVRPEAECYIALAEAGHDVTVISSGTNAYIDRYKKSKVKFIELKTLKKHSWAVIKQIRQYIKANNIDIVYATESKGIPNAAFACIGTKAKLVVYRGTSGGMYKTDPSNYLCMLHPRINGVIGVSSAVSANVREKVRGAIKANVETIYKGHDLSWYKEDAADLVSLGSNKKYFNILCVGSPRHHKGTHILLDAAKELNDIEDLRIILVGDNLDKQAFIDQINNSGMSEHILQPGFRSDVPAIAKACDLLILPSLSKEGLTRTVLESLSNGTPVVSSANDGVVETIENGFNGYLVPIGDVQAMADKIRMLYNDRVLLEKLSNHAQDIIKDKMSHHKTVTHMEAYFEKIIAQN | not soluble
MGSDKIHHHHHHMGDLSDIRVFLAVAQQRSFTAAARQLSMTPPTVTRSVSALEQSLGVQLLLRTTRQVSLTSAGAVYAARVEPLIRQFDQVRDDLREEQGDVAGLIRINAPLSLGQQLLPDIVSGFRAEHPQVSVSLSLTDRFIDIVSERFDLALRVSEAPRDRSTIWRKVCRVRRILVASPGYLAIFGTPETPDDLSRHGCIAYDEEAISETWELTNGGRTRKALAGKVLAANNGELIAKLVEDGQGLALLPHFIVGDALASARRAEAGPCRVGASGALADIVLSALRETADARCEILGLLRKICYPYAPAVKKRRTQVLFSRRKASFPAKGEHMLQEFDDALRHASFESDLNGLYAALLLSRSFGSSESRIRSLGRSLPDLSQQKSRFVWRRE | not soluble
MGDIMQQQLTQALEAYLQKLDDEARIEAINAFRQVLHHYSPFRSQPVDCVLWVKQELVAPNDYNPNNVAPPEKRLLQTSLEADGFTQPVVVIQQRPQAYTIVDGFHRHELACSKAALKKTLKGYLPVTCLTSEAASRDGLMAATIRHNRARGRHQIHAMSEIVRELTQLGWTPQKIGKELGMDADEVLRLKQISGLTEMFAGRQFSQAWTIK | not soluble
